Assay results published in the supplement of paper PMC12636428.

System: Saccharomyces cerevisiae
Assay: transcriptional activation domain activity (GFP:mCherry ratio, weighted mean of sorted bins, harmonized to initial dataset scale) (arbitrary fluorescence ratio units); higher = stronger transcriptional activation
Conditions: beta-estradiol 1 µM; induction time 4 h
Outline: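 The listed activation activity is a read-weighted mean of bin median fluorescence, averaged across barcodes and linearly mapped onto the initial dataset scale. Barcoded tiles, fused to an estradiol-inducible synthetic transcription factor, were integrated at URA3 in yeast diploids bearing a GFP reporter. Cells were held 4 hours at 30 °C in SC with 1 uM beta-estradiol, sorted into 8 GFP:mCherry bins, and sequenced, and tiles with fewer than 50 reads were excluded.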

| Sequence | transcriptional activation domain activity |
| --- | --- |
| SVSRDRGAFEWAGDNLMTVFCQPYRLVDPEMWCLLYDVLRFNACCRSIIATPY | 63900 |
| SVSRLHAKIEYEEEEERFVLVVVGRNGAWVDGVWSGAGSRVPLCERSQIQIAS | 45800 |
| SVSRLHAKIEYEEENERFVLVVLGRNGAWVDGIWSGSGSRVPLGPRSQIQIAT | 31600 |
| SVTSEAIQVCVAARAREGEANRAVRNVIAEALRVPKSNVQVAKGLKSREKTLI | 43300 |
| SVTSTEELEITVETLRELAAHPAVIKGKQCRELRGAVHEFRQACTTGVNAAGT | 53600 |
| SVVKFIEEYQAYFNTSYEVFLLLYISFILVTTLWCTSLIIYRILTVHLIEVLV | 29800 |
| SVVLGVLHMSLSICTQVPNFIHFGRPSSIITEFLPQILFLHCLFGYLVFMIIY | 79100 |
| SVYALVHFGAFYRSSHGPIRMLALHIQAFYNLCSLLFSWFAIANLWLTFSIII | 67600 |
| SVYCLLLILFIPYPFSDVFAKCKHASLEGLACGDFPHNQLSIYLAAILCLLIA | 49800 |
| SVYLHALKKVITTWKGEVLPIILARKIQWTEWEIKDLEYEITHFYVKTFFMTI | 47900 |
| SWFDIDEENGDVISRLEWYHLVQMSLVHATILIWWTTGKVLININVSMAVRCG | 54100 |
| SWFIHFYILSLSCTVFWAVQFVIDGTVLEVIIKNQLARCTSSMTLSQVLLAWF | 50300 |
| SWFIYSYDKEWIFLWHIPFPYPPIRTPSIPWVLYGLSVRFWSFISLLICNFFC | 63300 |
| SWLRGYEVFKLQVSSTMIKCLRGMLCFIPVVCLGPNIVLLLGLPIQTQVKWFL | 61100 |
| SWNAPSLTNSWDSPPGNRTGAVTIGDESINGSEMPDFSLDLVSNDRQTGLEAL | 32800 |
| SWRDPSYIYSKIGLCSTASLFLGLSFLNQPVSLQGVQNQIFSFFMLLVIQVFM | 60200 |
| SWRRLPLAMLNFSRAVTFRWTIIIARTYSLNLADVLLTGMYITILFTWNFHNS | 40000 |
| SYFIAAIINWEMSGFFLFSYEYVHKDLNLGCSNLYFTWYALFKEYGAPLVPMS | 45100 |
| SYINTHNSNDNNNLMGSQARSNSQTPTASTIYEEAESQSSYLDDMFRTSQGGR | 43100 |
| SYITYYQSRQFVMIPWYFYFIIITCVLTIIFVMAVCFLFYIHLLLPILVMLWS | 35400 |
| SYLHSFLLSFLYPPSPLVSSPFTLLCSFPYFFSFLSFFFSFSFPYSSSCFVFH | 45000 |
| SYQHLHSVMKVINCLNLMLVVCYFSDVRYLKVLVKFWNELHNDVVSRNKLIIV | 42300 |
| SYSLNTSLCQAFWHVTWRLTPPLAVFLPINPFLCLHLHFTCTLFFLLSLVMLQ | 58400 |
| SYWLTIQRYGGWFPNRVQSSSTSFSVFLHFSNPFWLHGWWLLCCLLRLASFVL | 79900 |
| SYYNLLCFSLCVRVCVCFVLLIILSFVSLLCFSFLLCFHCVLPFFFFFVFFFF | 49200 |

| Sequence | transcriptional activation domain activity |
| --- | --- |
| TAALIELILAIAFRVTMYHLALYGSNVLFRYMRLSNELSNRYANCLVATLNAR | 23200 |
| TAANGKKSKGNKGGNAAGANANANAKANGNTKNGNGNSRNGNNKRMRALGSAM | 25700 |
| TAAPYHKLAYHPALSPKISLGFWPFQHILTFLDYKEYVLQWTLLVTVQIPWFN | 64700 |
| TAATVPSATRAVVSATCRATALRVRSATTAAVTTTSPATARLPARPAPATTAS | 34000 |
| TACVAIINIKCLFLEMHVWSVLNYAFFFISYGGWWVWTIAQSLIFGHQSIYFV | 34700 |
| TADTAAASTSQPKLAQDQQQATDGENSEKRKPGRPRGSRNRKPRASVGSATKA | 37800 |
| TAGAATNNKRNRLKVNGKVFTRLDVIGRGGSSRVYRVMAENSKIFALKRVSLD | 35800 |
| TAIVTVISTVMAIATVTATGIMSIIDTMSTTAIITAIAMDMVTESIMVITAIT | 87500 |
| TAKLLLEDSMKKKRQEIQQLEQATHQRSNLETTHLLDIDWDALLDPSDTLNFM | 90000 |
| TAPAPEAAAEPAPAAEAEAPAAETAEAPKEEAKDEKKPEKEKKVSRRLSSRVT | 32400 |
| TAPFPILEDQCPALNLDRSNNDLLLQNNISFPKGSDLQAIQLTPISGDYSTYV | 92600 |
| TAPSATSAAALVTSPATALRVAMVVSRAAAPAAATTVPARARPATPAVVSATC | 51300 |
| TARVSEAKPARGRPSSAKAESPAVEAAPAVKKRGRGRPSKTKPETEEEEEAVP | 39600 |
| TASSGTRATTTSSAPRSRRTHTTPLRAAQARAPRCRTARARTSCGSTPTARRS | 23800 |
| TASTGTEARNAETTTRRVRSGIVNRRSHAKSRTGCRTCKRRRIKCDESRPSCR | 22400 |
| TATARVRAVGENQKLEIVLGESDGTEEECQCGRRNKNANVKKYVQGVRAGIHY | 35000 |
| TATKPTESKPVETKTDAAAAGKSTTPANGSGSASATKPAETASTTEKKKKNRL | 30400 |
| TATVQYSERRRGTVTAFNDEKGYGFAADSDPASLGNKEVLVHHKKIKSTARHK | 24200 |
| TAVLMQLINLTVFICLASFGSLVFATWLPLIFQYYAIHLRDLLLHDASLIVNW | 39100 |
| TAVSQLERAIARILLIRYEQDIARLFSTRLYSVALVHLPTFVMRCAALAGPGW | 50400 |
| TCRHSSPHVWWLIFGVLCIMYMMVLEVLLLGFVVLVLAPLVFIFWNLFLICIG | 52700 |
| TCRLSSPHLWWLTFGILCVLYLMVLEIFLLGLLVFFVGPLFYLFWNVVLLCLG | 79500 |
| TDAAADAPKEDEVKEGEEKMETESTEEKKESESAEEKPAEETAASADTEMAEA | 25600 |
| TDAGPGEEDEEVVHEVRAKALRHVPVKPDDDADSKKKNNSPWQPEGLGPLRIL | 34200 |
| TDDAKAKRKKEKKEKKEKSRSKKSADEGSDNEDGTSEERSKKRKSKSKSKSRS | 30700 |

| Sequence | transcriptional activation domain activity |
| --- | --- |
| TDDAPRVKTKAEKEKEKKEKEKQRKKEMAAKKKANAPAKQEAAKPAETKAAAA | 41100 |
| TDDYFQTVLMSGLLRVLKDPASSGQHHTVIEAIMAIFKTWIMLAFAAVTRSSV | 56900 |
| TDEAESKKAEEVPKTAEEAKPEESKAEETAMADETPKTEEAKPEDVKVEAHKE | 19400 |
| TDILKFWHLVVHNGMLERAKGLVSITLTSDTRFVFKAISWRLVMLPRLKYLAL | 76100 |
| TDMDLKILEDLCNISSLYEVPFGKHINHHDHNNAGNGCDGSSTGNNENGNQTM | 77600 |
| TDPKPITDNGKNVPLDEIESLEIPNLDLTTTMNGYDVNLLMQNLNDMVNMKLH | 91600 |
| TDRGGRRGKDYDPADRRHRRRGSSSSSDDRRRSRSRSKSRTRKAAETAAVAGV | 59200 |
| TDSNATQKQLPVLTPSDLLSPFSVPSVSQVLFTNELRSMMLADNNIDSGAFPT | 79900 |
| TDVYYALRPGYQDDEVWDLLPLPTFPQLHMLTLNMLHISFQFPNWWTLWFKWI | 68900 |
| TDYYQAVGQHDFIKAFHDEIGPFHRKVYDNVIRKIFVLLAIILELPENYFVDR | 40900 |
| TEAPKEEAAPAPVEEAPKQEEAPADAPAEEAAPAAAEEAPKETAAASPPKRGI | 47800 |
| TEAPPAPAPEGGDDEEDGEGDEGGEAAAGGKKKKKKKKPAEKKVPEAPAPKKG | 15400 |
| TECASIPFAKMRALLNGIPVTNLNDRDRMMLFIFKLVLLEVRSKNTLEILSNH | 33400 |
| TEEDAINQSKESNMISINEMLQKQMDFELLGENHLKETQDYLALYKKAYGIEF | 113000 |
| TEETPHDLPKNTAKGRDEEDFPLDYFPVSVEYPTEENAFDPFPPQAFTPAAPS | 42500 |
| TEEVVEPAAEKPAKKSRKRKSDVAEAVAEEKPETPVKPKKAKKEVAKAEEVVA | 20400 |
| TEGEPETPADGDEEEGGEAEAEGGEEKKEEEEGWGLPVKKKKGKKGKGSNDAT | 26900 |
| TELYRFTLAQSEQPGMYPLDLAWLDWDLVSSLWSYSLWSIQLSIYFFCPFAYF | 61400 |
| TENIERVLERGERIDLLVDKTGRLNVGANEFRRRSRGLRRRMWWKNVKLMALL | 65200 |
| TEQEAIQKKRKKRKIREDNGISTVLFALEEVCAIILHRMQHRNGVPHVTTLVF | 52100 |
| TEQSVFVGLLLYRLKYPANLVSLVLKLSAVQSTLFKVVFAVYLLVWWGIKQAR | 63100 |
| TESVCWDFVWLTFYFTFGLTSLITSWAALPPLSQWSLSFGQLVPIFLLLFFLT | 46700 |
| TETELYIPEFKLDPVNGYWFPHFVKYIIVALMMGLYILIVFWTLMIFKVVYKL | 43100 |
| TEVHVARERIMSYALNLFQLAAGPSEYLANLQTGYHYVACLQWLLRFKIFALV | 57300 |
